Columns and labels:
human LILRB4 [1] = molecular target: T1, human LILRB4 (human, UniProt Q8NHJ6 22-259, limits assumed); experiment: 'Affinity to human LILRB4'; method not stated in the example
T1 construct: also called ILT3; LIR5

human LILRB4 [2] = molecular target: T1, human LILRB4; experiment: blocking of Fibronectin binding to LILRB4; method not stated in the example
human LILRB4 [3] = molecular target: T1, human LILRB4; experiment: blocking of APOE binding to LILRB4; method not stated in the example

- Kd (human LILRB4 [1]): 0.5 nM
- IC50 (human LILRB4 [2]): 0.78 nM
- IC50 (human LILRB4 [3]): 0.18 nM
B1: anti-LILRB4 antibody H7K3m5 (antibody, IgG1, V domains shown)
VH: EVQLVESGGGLVQPGGSLRLSCAASGFSLSSSYWISWVRQAPGKGLEWIGSIDSGSVGITYYATWVKGRFTISRDNSKNTLYLQMNSLRAEDTAVYYCARHGDNWALDLWGQGTLVTVSS
VL: DIQMTQSPSTLSASVGDRVTITCRASQSISSWLAWYQQKPGKAPKLLIYKASTLASGVPSRFSGSGSGTEFTLTISSLQPDDFATYYCQHGYIRGDLDNVFGGGTKVEIK

Reference: patent US20250179173A1 (IMMUNE ONC THERAPEUTICS, published 2025)
